Consider four molecules from article PMC3830641 (Biochemistry, 2013).

In series [1] the target is anti-σ factor (ELI_10225) from Erythrobacter litoralis HTCC2594 (Erythrobacter litoralis HTCC2594) (UniProt Q2N854). The experiment in a line: SEC-MALS. For orientation: In gel filtration, larger molecules generally elute earlier.
The series “SEC-MALS” deals with the molecule itself. Put plainly: SEC-MALS.

Numbering of substitutions follows the chain as printed. Numbers in names are those of the source.

What is called stoichiometry N is the number of molecules, sites or subunits per partner or assembly. As for “phospho-EL_PhyR (EL_PhyR phosphorylated by EL368 and ATP) (from UniProt Q2N856 1-266) (natural protein)”, the stoichiometry N in series [1] stood at 1.

B1: EL362, LOV-histidine kinase from Erythrobacter litoralis HTCC2594 (wild type, Arg 150) (enzyme, UniProt Q2N9L9 1-362, looked up)
chain: MDDQPTTRANRVGHPESSRQAYSSESGATHGSLAFPGASGLLFEQAMAQTRMAVCLTDPHQPDHPIVFCNAAFERLTGYEEKDIIGRNCRFLQGARTDESQVARIRDALAKEEVAVVELLNYRKDGSTFWNALHLGPIYDESGKLKYFFRSQWDVTDIHEARAEQRHAKAMAREVSHRLKNVFSVIAGIVNITGRSMDARPVASRINERVQALGRAYEPTLDEAFMGTIEVGQAIRAILAPYDPEGDRVSLEGNGVRTEPNAISSIGLTLHELASNAIKYGALSNETGTIDVSWHHERDDHDRRRLVIDWKESGGPTIEGPPETGGTGFDISETLLSYSNGTLEKRWDRDGLFVRIAIPIEQ
B1: the binding result in the series “SEC-MALS” was “binds”.

B2: EL362(R150G) (enzyme, Erythrobacter litoralis HTCC2594, UniProt Q2N9L9 1-362, looked up)
chain: B1 chain with R150G
Consider B2, for which the binding result in “SEC-MALS” is on record as “binds”.

B3: EL368, LOV-histidine kinase from Erythrobacter litoralis HTCC2594 (enzyme, UniProt Q2NCA3 1-360, looked up)
chain: MPLKGEISAQAGREFDTSRLDLRAIIDPRDLRVDPTRLFLETTQQTRLAICISDPHQPDCPVVYVNQAFLDLTGYAREEIVGRNCRFLQGADTDPEQVRKLREGIAAERYTVVDLLNYRKDGIPFWNAVHVGPIYGEDGTLQYFYGSQWDITDIVAERRKAETQRRIAAELRHRTGNIFAVLNAIIGLTSRRERDVSEFADKLSERVSALASAHRMTIMDEPDQEAVAIDDLVTGVMKPYRNRFAERVTTSGPKIELGPRSVTALGLALHELATNAVKYGALSVDAGRVEISWSREDGDVTLVWQEQGGPTVSQEQSEPVKGNGTMLIDGMIASLTGSIERDFAAAGLQAKITLPVHQPE
Regarding B3, in the series “SEC-MALS”, the “stoichiometry N” value stood at 2.
